Measured values as given in patent US20050267020A1, “Polypeptides derived from inducible hsp70 and pharmaceutical compositions containing the same” (priority 2001, published 2005).

Assays:
HLA-B*0702 = target: T1, HLA-B*0702 (Homo sapiens, UniProt P01889); experiment: Measurement of peptide relative affinity to HLA-B*0702; format: binding; settings: for Relative affinity: towards HLA-B*0702 molecule, lower = stronger binding
T1 construct: expressed in transfected cells; host or cells: T2-B7 cells (Tap-/-)
Procedure: Measurement of Peptide Relative Affinity to HLA class I. Tap−/− cells expressing the studied HLA-class I molecule (3×10^5 cells/mL) were incubated with various concentrations of peptides ranging from 100 μM to 0.1 μM in serum-free RPMI 1640 medium supplemented with 100 ng/ml of human β-2m at 37° C. for 16 hours. Cells were then washed twice and stained with the specific anti-class I mAb followed by FITC conjugated goat anti mouse Ig mAb to quantify the expression of HLA-A*0201. For each peptide concentration, the HLA-specific staining was calculated as the % of the staining obtained with 100 μM of the reference peptide. The relative affinity (RA) is determined as: RA=(Concentration of each peptide that induces 20% of HLA expression/Concentration of the reference peptide that induces 20% of HLA expression). The lower the RA-value, the stronger is the peptide binding to HLA. The mean RA value for each peptide is determined from at least three independent experiments.
For the study of Relative Affinity to HLA-A*0201, Tap−/− HLA-A*0201 T2 cells, the HLA-A*0201 specific mAb BB7.2 and the reference HLA-A*0201-binding peptide HIVpol 589 (IVGAETFYV) were used. For the study of Relative Affinity to HLA-A*0301, Tap−/− HLA-A*0301 T2-A3 cells are used. For the study of Relative Affinity to HLA-B*0701, Tap−/− HLA-B*0701 T2-B7 cells are used.
High affinity peptide discovery was also lead for the MHC molecule HLA-B*0702. 11 peptides presenting the primary anchor motif for HLA-B*0702 or predicted to show a high affinity by the computerized program BIMAS were tested for their Relative Affinity.

[1] = test system: COS cells transfected with both Hsp70 and HHD expression vectors; experiment: Peptide processing assay on COS-transfected cells, TNF-α secretion by murine CTL; format: cell-based, simian
Excerpt: After contact of murine CTL lines with transfected COS cell, CTL recognition of COS cells is expressed as CTL secretion of TNF-α dosed in supernatant (X Axis, TNF-α ranges from 0 to 500 pg/ml). The graphs represent TNF-α dosage by cytotoxic cell lines, respectively mCTL380, mCTL391 mCTL393 and mCTL134, after contact with COS cells. In each graph, upper to lower bars represent the different cells in contact with CTL, respectively: negative control (no COS cell), COS cells, COS cells transfected with Hsp70 expression plasmid, COS cells transfected with HHD expression plasmid, positive control (COS cells transfected with HHD and pulsed with the respective peptide), COS cells transfected with HHD and with Hsp70 expression plasmids.
Peptide Processing Assay on COS-Transfected Cells. 2.2×10^4 simian COS cells were plated in flat-bottom 96 well plates in DMEM 10% FCS, in quadruplicates for each condition. 18 hours later, the medium is discarded, and 100 ng of each DNA plasmid, encoding for Hsp70 and HLA class I molecules, is put in contact with COS cells in DMEM 10% Nuserum […] Chloroquine 10 mg/mL DEAE Dextran. After 4 hours of incubation at 37° C., transfection medium is discarded, and 50 μL PBS 10% DMSO is added for 2 minutes for integration of plasmids. It is then discarded and transfected COS cells are placed in DMEM 10% FCS for 40 hours. Transfected COS cells are then used with 5×10^4 murine CTL in a TNF-α secretion assay.
(§1) TNF-α Secretion Assay. Transfected COS cells on day 4 or 10^5 target tumor cells were plated in 50 μL RPMI 10% FCS and when necessary incubated with 10 μM peptide for 1 hour. In blocking experiments, anti-HLA class I antibody w6/32 or an irrelevant antibody were incubated with target cells for 1 h30. 5×10^4 T cells were then added in 50 μL RPMI 10% FCS and incubated for 6 hours. Each condition was tested in quadruplicates. 50 μL of the supernatant was collected. Standard dilutions were prepared in 50 μL with final doses of TNF-α (kindly provided by I. Apfler, Bender Wien, Austria) ranging from 10^4 to 0.08 pg/mL. On both the supernatants and the standards were added 50 μL of 3×10^4 TNF-α sensitive WEHI-164c13 cells. They were incubated for 16 hours at 37° C. (23). Inhibition of cell proliferation was evaluated by the MTT colorimetric method. Briefly, 50 μL of MTT at 2.5 mg/mL (Sigma-Aldrich) was added and incubated for 4 hours at 37° C. Cells were then lyzed with 100 μL of a pH4.7 33% N,N-dimethyl formamide (Sigma-Aldrich) 20% SDS solution in water. Two hours after cells lysis, OD was measured at 550 nm on a Dynatech MR5000 spectrophotometer. TNF-α quantitation was calculated by linear interpolation with the standard dilutions.

human CD8+ cells = experiment: Generation of CTL from human PBMC with peptide- or polyepitope-pulsed dendritic cells, intracellular IFN-γ staining; format: cell-based; settings: CD8+ cells stimulated with peptide-loaded dendritic cells
Procedure: The three graphs entitled hCTL380, hCTL391 and hCTL393 represent respectively the testing of p380, p391 and p393-specific human CTLs. P391 and p393 specific CTLs were tested towards EBV-B cells, whereas p380 specific CTLs were tested towards T2 cells. The number of IFN-γ producing CD8+ cells for 10^5 CD8+ cells upon activation, indicated on the X-axis, was measured, as assessed by staining cells for CD8 and intracellular IFN-γ.
Polyepitope induced human CTL were tested for their capacity to respond to T2 cells loaded with p380, p391 or p393 or the irrelevant HIVpol589 peptides in intracellular IFN-γ staining. The X axis represents the number of IFNγ-producing CTL/10^5 CD8+ cells. On the Y axis, upper to lower bars represent the results obtained when cells were loaded respectively with irrelevant HIV pol589 peptides, or with p380, p391 or p393 peptides.
Generation of CTL from Human Peripheral Blood Mononuclear Cells (PBMC). Fresh PBMC collected from healthy donnors under informed consent were serologically typed for the studied HLA-class I molecule, and purified using standard Ficoll-Paque (Amersham Pharmacia Biotech AB). Dendritic cells (DC) were prepared by cultivating plastic adherent PBMC in the presence of 500 U/mL GM-CSF (R&D Systems Inc. MN) and 500 U/mL IL-4 (R&D Systems Inc. MN) for 7 days such as described in Keogh et al. (30).
DC were then maturated for 2 days with 2 μg/mL anti-CD40 antibody and 100 ng/mL Poly I:C (Sigma-Aldrich). […] Autologous CD8+ purified T-cells (CD8 MicroBeads, Miltneyi Biotec Inc. CA) were stimulated weekly with DC pulsed for two hours with peptide (10 μM) and irradiated at 35Gy at a T:DC ratio of 10:1 in culture medium (CM; RPMI 1640 supplemented with 10% human AB serum, […] L-glutamine and gentamycin). 1×10^3 U/mL IL-6 and SU/mL IL-12 (R&D Systems Inc. MN) were added during the first week of culture. 20 U/mL clinical grade IL-2 (Proleukin, Chiron Corp.) and 10 ng/mL IL-7 (R&D Systems Inc. MN) were added during the next two weeks of culture. 7 days after the last stimulation with DC, peptide specific IFN-γ secreting CD8+ T cells were magnetically sorted following encounter of the peptide presented by HLA-A*0201+ B-EBV cells (IFN-γ Secretion Assay, Miltenyi Biotec Inc. CA). The characterization of peptide-specific T cells was tested 7 days after the purification step.
Intracellular IFN-g Staining. 5×10^4 T cells were incubated with 10^5 stimulating peptide loaded EBV-B cells or with 10^5 tumor cells in the presence of 20 μg/ml brefeldin-A (Sigma, Oakville, Canada). Six hours later, they were washed, stained with r-phycoerythrin-conjugated anti-CD8 antibody (Caltag Laboratories, Burlingame, Calif.) in PBS for 25 min at 4° C., washed and fixed with 4% PFA. Then, cells were permeabilized with PBS 0.5% BSA 0.2% saponin (Sigma, Oakville, Canada), and stained with allophycocyanin-conjugated anti-IFNg mAb (PharMingen, Mississauga, Canada) for 25 min at 4° C. Cells were analyzed on FACSCalibur (Becton Dickinson, Mountain View, Calif.).

[2] = test system: MCF-7 and SAOS tumor cell lines; experiment: Recognition by murine CTL of epitopes at the surface of human tumor cells, TNF-α secretion assay; format: cell-based; settings: HLA-A*0201+ Hsp70+ tumor cells
Excerpt: CTL recognition of tumoral cells is expressed as CTL secretion of TNF-α dosed in supernatant (X Axis, TNF-α ranges from 0 to 1000 pg/ml) after contact with the cells. Upper to lower bars represent the different cells and reagents in contact with CTL, respectively: 2 negative controls (M113, M44), SAOS, MCF-7, MCF-7 blocked with anti-class I (w6/32) antibody before mixed culture, and MCF-7 blocked with an irrelevant antibody before mixed culture.
as §1
We studied whether the over-expression of Hsp70 described in certain tumor cell lines was high enough to enable these epitopes to be presented at the surface of tumor cells. We addressed this question with our already available high-avidity murine CTLs, hypothesizing that such a high CTL avidity enables the recognition of the highest-Hsp70 expressing human tumor cells. […]

HHD mice = experiment: Generation of CTL in HLA-A*0201 transgenic HHD mice (immunogenicity); format: in vivo, mouse
Procedure: Generation of CTL in HLA-transgenic mice. HLA-transgenic mice were injected subcutaneously at the base of the tail with 100 μg of peptide emulsified in incomplete Freund's adjuvant (IFA) in the presence of 140 μg of the I-A^b restricted HBVcore-derived T-helper epitope (128-140; sequence TPPAYRPPNAPIL). After 11 days, spleen cells (5×10^7 cells in 10 mL) were stimulated in vitro with peptide (10 μM). On day 6 of culture, the bulk responder populations were tested for specific cytotoxicity. Upon response, the CTL line was then weekly re-stimulated in vitro with 20×10^6 35Gy irradiated spleen cells in the presence of 1 to 0.1 μM peptide and 50 U/mL IL-2 (Proleukin, Chiron Corp.). Cytotoxicity was assayed 6 days after the last stimulation and TNF-α secretion 11-13 days after, with the addition of 50 U/mL IL-2 on day 7. HHD mice transgenic for HLA-A*0201 were used. B7B7 Kd mice and mice transgenic for HLA-A*0301 are used for the study of the HLA-B*0701 and HLA-A*0301 restricted peptides respectively.

HLA-A*0201 [3] = target: T2, HLA-A*0201 (human); experiment: HLA-A*0201 stabilisation on T2 cells, flow cytometry with BB7.2; ratio to reference peptide HIVpol 589
T2 construct: MHC class I molecule on TAP-deficient T2 cells; stabilised at the surface by the added peptide and detected with mAb BB7.2
Procedure: For each peptide concentration, the HLA-specific staining was calculated as the % of the staining obtained with 100 μM of the reference peptide. […] The mean RA value for each peptide is determined from at least three independent experiments.

HLA-A*0201 [4] = target: T2, HLA-A*0201; experiment: decay of peptide-stabilised HLA-A*0201 on T2 cells after Brefeldin A, flow cytometry
Procedure: Assessment of Peptide/HLA class I Complex Stability. […] Cells were then washed four times to remove free peptide, incubated with Brefeldin A (10 μg/mL) for 1 hour to block cell surface expression of newly synthesized HLA molecules, washed and incubated at 37° C. for 0, 2, 4 or 6 hours. Subsequently, cells were stained with the HLA specific mAb followed by FITC conjugated goat anti mouse Ig mAb.

Row | Molecule | Relative affinity (HLA-B*0702) | Relative affinity (HLA-A*0201 [3]) | also measured
1 | APLSLGLET [HSP 397] | >10 |  | 
2 | YPEEISSMV [HSP 115] | >10 |  | 
3 | YPVTNAVITV [HSP 137(10)] | >10 |  | 
4 | DVAPLSLGL [HSP 395] | >10 |  | 
5 | STRIPKVQKL [HSP 340] | >10 |  | 
6 | LLDVAPLSL [HSP 393] |  |  | processing of the peptide: recognition of Hsp70 + HHD transfected COS cells by the specific murine CTL line [1]: are epitopes; induction of specific human CTL (human CD8+ cells): capable of stimulating specific human CTL; presentation of the epitope at the surface of Hsp70 over-expressing human tumor cells [2]: epitope correctly presented at the surface of Hsp70 over-expressing tumors; induction of specific cytotoxic T cell immune response in HHD mice (HHD mice): capable of generating a specific cytotoxic T cell immune response
7 | IPTKQTQIF [HSP 420] | >10 |  | 
8 | YPVTNAVIT [HSP 137] | 1.2 |  | affinity for HLA-B*0702 (in words) (HLA-B*0702; Relative Affinity determination): high affinity
9 | YPEEISSMVL [HSP 115(10)] | >10 |  | 
10 | GPGPGGFGA [HSP 616] | >10 |  | 
11 | IPTKQTQIFT [HSP 420(10)] | >10 |  | 
12 | QVCNPIISGL [HSP 601] | >10 |  | 
13 | LMGDKSENV [HSP 380 (LMGDKSENV)] |  | 2.5 | Stability (hrs) (DC50, half life of the HLA-A*0201/peptide complex) (HLA-A*0201 [4]): 4 h
14 | SLFEGIDFYT [HSP 286 (SLFEGIDFYT)] |  | 0.25 | Stability (hrs) (DC50, half life of the HLA-A*0201/peptide complex) (HLA-A*0201 [4]): > 6 h
15 | LLLLDVAPL [HSP 391 (LLLLDVAPL)] |  | 0.5 | Stability (hrs) (DC50, half life of the HLA-A*0201/peptide complex) (HLA-A*0201 [4]): > 6 h
16 | LLDVAPLSL [HSP 393 (LLDVAPLSL)] |  | 0.4 | 
17 | YLGYPVTNAV (also called HSPI34(10)) [HSP 134(10) (YLGYPVTNAV)] |  | 0.6 | 
18 | YLGYPVTNA [HSP 134 (YLGYPVTNA)] |  | 2.5 | 
